Drawing on publication PMC7911445, this text covers localisation_or_trafficking for one substance.

Where two headings read alike, the source gives them in different places.

For “β-catenin: 1-mM LiCl (GSK3β inhibitor) added to TMA/BL-treated cultures”, the localisation_or_trafficking result (phosphorylation at S33) is on record as “increases” and the localisation_or_trafficking result (phosphorylation at S37) is “increases”.
